Measured values reported in US20210301026A1 (ULTRAHUMAN TWELVE, published 2021).
Residue numbers refer to the chain shown, from its start. Names and notes keep the numbering of the source. Where two headings read alike, the source gives them in different places.

Key:
[1] = target: T1, human CSF1R, membrane-presented on cells (human, UniProt P07333 20-972); assay: flow cytometry on HEK-293 cells expressing human CSF1R, MFI
T1 construct: HEK-293 cells transiently transfected with human CSF1R (flow cytometry); the native receptor on primary human monocytes in the proliferation assay; also called human CSF1R+ HEK-293 cells; CSF1R on primary human CD14+ monocytes

[2] = target: T2, human CSF1R human Fc tagged recombinant protein (human, UniProt P07333 20-517); assay: direct titration ELISA on coated human CSF1R-Fc, IgG4(S228P) format, OD 450 nm
T2 construct: also called human CSF1R-Fc
Protocol: (§1) Binding and cross-reactivity of the lead panel to the recombinant proteins was initially assessed by binding ELISA. The human CSF1R human Fc tagged recombinant protein and the cynomolgus monkey CSF1R human Fc tagged recombinant protein were coated to the surface of MaxiSorp™ flat-bottom 96 well plate at 1 μg/ml. The purified IgG samples were titrated in two fold serial dilutions starting from 500 nM to 0.008 nM and allowed to bind to the coated antigens. The Fabs were detected using mouse anti-c-myc antibody followed by donkey anti-mouse IgG conjugated to horseradish peroxidase. The IgGs were detected using the mouse anti-human IgG conjugated to horseradish peroxidase. Binding signals were visualized with 3,3′,5,5′-Tetramethylbenzidine Substrate Solution (TMB) and the absorbance measured at 450 nm.

[3] = target: T3, cynomolgus monkey CSF1R human Fc tagged recombinant protein (cynomolgus monkey, UniProt P07333 20-517 (human entry), limits assumed); assay: direct titration ELISA on coated cyno CSF1R-Fc, IgG4(S228P) format, OD 450 nm
T3 construct: also called cyno CSF1R-Fc
T3 chain: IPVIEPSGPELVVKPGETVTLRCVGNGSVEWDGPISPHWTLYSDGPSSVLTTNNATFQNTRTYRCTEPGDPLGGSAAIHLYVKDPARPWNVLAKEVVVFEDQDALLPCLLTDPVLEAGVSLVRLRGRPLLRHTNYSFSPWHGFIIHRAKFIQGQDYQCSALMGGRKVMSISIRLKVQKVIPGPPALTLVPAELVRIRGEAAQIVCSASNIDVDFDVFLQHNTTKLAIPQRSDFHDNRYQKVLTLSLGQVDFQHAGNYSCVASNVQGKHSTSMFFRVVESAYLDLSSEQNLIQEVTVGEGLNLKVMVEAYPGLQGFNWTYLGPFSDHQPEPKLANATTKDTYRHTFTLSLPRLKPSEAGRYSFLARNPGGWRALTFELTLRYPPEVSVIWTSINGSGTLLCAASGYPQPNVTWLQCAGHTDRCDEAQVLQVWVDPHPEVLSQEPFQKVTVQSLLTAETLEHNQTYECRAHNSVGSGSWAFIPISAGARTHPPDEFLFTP
Protocol: as §1

[4] = target: T4, monomeric human CSF1R ectodomain protein (human, UniProt P07333 20-517); assay: AlphaScreen competition with mu0301 IgG4(S228P) for biotinylated monomeric human CSF1R
T4 construct: also called biotinylated monomeric human CSF1R

[5] = target: T4, monomeric human CSF1R ectodomain protein; assay: SPR Biacore, IgG captured, monomeric CSF1R analyte
[6] = target: T5, monomeric cynomolgus monkey CSF1R ectodomain protein (cynomolgus monkey, UniProt P07333 20-517 (human entry)); assay: SPR Biacore, IgG captured, monomeric CSF1R analyte
T5 construct: also called monomeric cyno CSF1R; Cyno CSF1R
T5 chain: T3 chain

[7] = target: T5, monomeric cynomolgus monkey CSF1R …; assay: SPR Biacore; KD on monomeric cyno CSF1R against KD of the same antibody on monomeric human CSF1R as reference
Protocol: Affinity (KD) of purified IgGs was determined via SPR with antigen in-solution on a Biacore 3000 (GE). A mouse anti-human antibody (CH1 specific) was immobilized on a CM5 Sensor Chip to a level of 2000 RU in acetate buffer at pH 4.5 using amine coupling following the Wizard instructions for two channels. One channel was used for background signal correction. The standard running buffer HBS-EP pH 7.4 was used. Regeneration was performed with a single injection of 10 μl of 10 mM Glycine at pH 1.5 at 20 μl/minute. IgG samples were injected for 2 minutes at 50 nM at 30 μl/min followed by and off-rate of 60 seconds. The monomeric ectodomain protein (human CSF1R or cynomolgus monkey CSF1R) was injected in two fold serial dilutions from 100 nM down to 3.1 nM, for 2 minutes at 30 μl/min followed by an off-rate of 300 seconds. The obtained sensorgrams were analysed using the Biacore 3000 evaluation (BIAevaluation) software. The KD was calculated by simultaneous fitting of the association and dissociation phases to a 1:1 Langmuir binding model.

[8] = target: T3, cynomolgus monkey CSF1R human Fc tagged …; assay: direct titration ELISA on coated cyno CSF1R-Fc, IgG4(S228P) format, OD 450 nm
Protocol: as §1

human insulin = target: T6, human insulin (human, UniProt P01308 25-54; P01308 90-110, limits assumed); assay: ELISA on human insulin (development risk, polyreactivity), binding score
T6 construct: Coated antigen of the polyreactivity ('PK-risk indicator') ELISA
T6 sequence (P01308 25-54 limits assumed, chain 1 of 2): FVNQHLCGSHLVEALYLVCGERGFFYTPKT
T6 sequence (P01308 90-110 limits assumed, chain 2 of 2): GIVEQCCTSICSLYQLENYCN

[9] = target: T4, monomeric human CSF1R ectodomain protein; assay: SPR Biacore, IgG captured, monomeric CSF1R analyte; remark: listed apart in the source
[10] = target: T5, monomeric cynomolgus monkey CSF1R …; assay: SPR Biacore, IgG captured, monomeric CSF1R analyte

B1: 26B07 (antibody, human IgG4, V domains shown)
VH: QVQLVQSGAEVKKPGSSVKVSCKASGYTFSSYYMIWVRQAPGQGLEWMGDINPYNGGANYAQKFQGRVTITADESTSTAYMELSSLRSEDTAVYYCAREGPYFSNLYVMDYWGQGTLVTVSS
VL: EIVLTQSPATLSLSPGERATLSCRASQSVEYQGDNYLNWYQQKPGQAPRLLIYAASNRATGIPARFSGSGSGTDFTLTISSLEPEDFAVYYCQLSNEDLLTFGGGTKVEIK
notes: Library-derived clone, tested as human IgG4(S228P)/Ckappa IgG; framework residue limits counted on the grafts
EC50 (read off the curve) [1]: ~1 nM
EC50 (read off the curve) [2]: ~0.08 nM
EC50 (read off the curve) [3]: ~0.09 nM
IC50 [4]: 2.56 nM
Kd [5]: 0.29 nM
koff [5]: 0.00042 s⁻¹
kon [5]: 1.5e+06 M⁻¹ s⁻¹
Kd [6]: 0.85 nM
koff [6]: 0.00026 s⁻¹
kon [6]: 310000 M⁻¹ s⁻¹

B2: humanized anti-CSF1R antibody 0301 (hu0301) (antibody, human IgG4, V domains shown)
VH: B1 VH with S30T, S31D, Y32N, A58T, N59T, Y60F, A61N, Q65K, E74K, G100S
VL: B1 VL with R24K, E30D, Q32D, L37M, R58L, A59E, T60S, Q93H, L100S
notes: also called mAb-1
human/cyno affinity differential [7]: > 3 fold
EC50 (read off the curve) [1]: ~1 nM
EC50 (read off the curve) [8]: ~0.07 nM
EC50 (read off the curve) [3]: ~0.08 nM
IC50 [4]: 2.38 nM
binding result (human insulin): no binding
Kd [5]: 0.21 nM
koff [5]: 0.00047 s⁻¹
kon [5]: 2.3e+06 M⁻¹ s⁻¹
Kd [6]: 0.66 nM
koff [6]: 0.00033 s⁻¹
kon [6]: 500000 M⁻¹ s⁻¹
Kd [9]: 0.21 nM
koff [9]: 0.00047 s⁻¹
kon [9]: 2.3e+06 M⁻¹ s⁻¹
Kd [10]: 0.66 nM
koff [10]: 0.00033 s⁻¹
kon [10]: 500000 M⁻¹ s⁻¹
